This is an account of results in patent US20180328929A1 (BIOMERIEUX, published 2018).

Series [1] deals with the molecule itself. Description: SDS-PAGE, non-heated (self-association).
Series [2] concerns the molecule itself. Description: SDS-PAGE (self-association).

B1: ORF2-MUT (ORF2 amino acids 394-660 with cysteines 627, 630 and 638 changed to serine, N-terminal 8-his tag) (other)
chain: HHHHHHHHQLFYSRPVVSANGEPTVKLYTSVENAQQDKGIAIPHDIDLGESRVVIQDYDNQHEQDRPTPSPAPSRPFSVLRANDVLWLSLTAAEYDQSTYGSSTGPVYVSDSVTLVNVATGAQAVARSLDWTKVTLDGRPLSTTQQYSKTFFVLPLRGKLSFWEAGTTKAGYPYNYNTTASDQLLVENAAGHRVAISTYTTSLGAGPVSISAVAVLAPHSALALLEDTMDYPARAHTFDDFSPESRPLGLQGSAFQSTVAELQRLKMKVGKTREL
notes: Made in E. coli; also called p-ORF2-MUT; construction according to the invention
For B1, the binding result in series [1] is reported as “binds”.

B2: ORF2-REF (ORF2 amino acids 394-660 of hepatitis E virus isolate Human/China/HeBei/1987, N-terminal 8-his tag) (other)
chain: HHHHHHHHQLFYSRPVVSANGEPTVKLYTSVENAQQDKGIAIPHDIDLGESRVVIQDYDNQHEQDRPTPSPAPSRPFSVLRANDVLWLSLTAAEYDQSTYGSSTGPVYVSDSVTLVNVATGAQAVARSLDWTKVTLDGRPLSTTQQYSKTFFVLPLRGKLSFWEAGTTKAGYPYNYNTTASDQLLVENAAGHRVAISTYTTSLGAGPVSISAVAVLAPHSALALLEDTMDYPARAHTFDDFCPECRPLGLQGCAFQSTVAELQRLKMKVGKTREL
notes: Made in E. coli, dissolved from inclusion bodies in urea, Ni-NTA purified, dialyzed; Heterogeneous: covalent dimers (major form), non-covalent dimers, high-molecular-weight forms and aggregates; also called p-ORF2.1 polypeptide
On to B2, for which the binding result in series [2] is recorded as “binds”.
